The values below come from patent publication CN115521379A (NANJING JISHENG AOMA BIOLOGICAL PHARMACEUTICAL CO LTD, dated 2022).

The target of assay [1] is T1, PD-1蛋白 (human, UniProt Q15116 25-167, limits assumed).
T1 construct: Recombinant PD-1 protein used in ELISA, SPR and BLI; also called PD-1[B]; (biotinylated)
In words: SPR (Biacore T200), antibody captured by anti-human Fc, PD-1 injected. (Surface plasmon resonance follows binding to a sensor surface in real time, without labels.)

The target of assay [2] is T1, PD-1蛋白. In words: binding ELISA on coated PD-1 protein. For orientation: ELISA stands for enzyme-linked immunosorbent assay.
Assay [3] addresses T1, PD-1蛋白. In words: competition ELISA: PD-L1 coated, biotinylated PD-1 0.5 ug/mL, antibody titrated.

T1 sequence (Q15116 25-167 limits assumed): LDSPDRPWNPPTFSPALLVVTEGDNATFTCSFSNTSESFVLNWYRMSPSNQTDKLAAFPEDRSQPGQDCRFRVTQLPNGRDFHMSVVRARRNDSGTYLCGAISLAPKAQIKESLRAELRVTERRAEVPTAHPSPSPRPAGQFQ

B1: hu19D4-25 (antibody, V domains shown)
VH: EVQLQESGPGLVKPSETLSLTCTVSGFSLTSYAISWIRQPPGKGLEWIGVIWTGGGTNYNSALKSRVTISKDTSKNQVSLKLSSVTAADTAVYYCARDHYGTSPFVYWGQGTLVTVSS
VL: DIVLTQTPLSLSVTPGQPASISCRASESVDNYGISFMNWFLQKPGQPPQLLIYAASNQGSGVPDRFSGSGSGTDFTLKISRVEAEDVGVYFCQQSKEVPWTFGGGTKVEIK
notes: also called 人源化抗体hu19D4-25
Broadly, the Kd is the equilibrium constant for the complex coming apart. A low value points to a tighter complex. Usually koff stands for the first-order rate constant of dissociation. Usually kon stands for the second-order rate constant of association. Read a high kon as faster complex formation. What is called EC50 is the concentration that produces a half-maximal response. High values mean weaker potency, low ones greater potency. In assay [1], B1 returned a Kd of 89.5 nM, a koff of 0.0105 s⁻¹ and a kon of 118000 M⁻¹ s⁻¹. In assay [2], this molecule registered an EC50 of 0.192 nM.

B2: WT-Agly-YTE (antibody, V domains shown)
VH: EVQLQESGPGLVKPSETLSLTCTVSGFSLTSYAISWIRQPPGKGLEWIGVIWTGGGTNYNSALKSRVTISKDTSKNQVSLKLSSVTAADTAVYYCARDHYGTSPFVYWGQGTLVTVSS
VL: DIVLTQTPLSLSVTPGQPASISCRASESVDNYGISFMNWFLQKPGQPPQLLIYAASNQGSGVPDRFSGSGSGTDFTLKISRVEAEDVGVYFCQQSKEVPWTFGGGTKVEIK
notes: also called WT-Ag-YTE; WT-AGY-YTE
The IC50 is the concentration at which inhibition is half-maximal. B2 displayed an IC50 in assay [3] of 0.411 µg/mL.

B3: 1C2-Agly (antibody, V domains shown)
VH: EVQLQESGPGLVKPSETLSLTCTVSGFSLTSYAISWIRQPPGKGLEWIGVIWTGGGTNYNSALKSRVTISKDTSKNQVSLKLSSVTAADTAVYYCARDHYGTSPFVYWGQGTLVTVSS
VL: DIVLTQTPLSLSVTPGQPASISCRASESVDNYGISFMNWFLQKPGQPPQLLIYAASNQGSGVPDRFSGSGSGTDFTLKISRVEAEDVGVYFCQQSLEVPWTFGGGTKVEIK
notes: also called 19D4-25-1C2与N297突变的Fc融合后得到的抗原结合蛋白
Consider B3, for which, in assay [3], the IC50 was found to be 0.375 µg/mL.

B4: 1C2-Agly-YTE (antibody, V domains shown)
VH: EVQLQESGPGLVKPSETLSLTCTVSGFSLTSYAISWIRQPPGKGLEWIGVIWTGGGTNYNSALKSRVTISKDTSKNQVSLKLSSVTAADTAVYYCARDHYGTSPFVYWGQGTLVTVSS
VL: DIVLTQTPLSLSVTPGQPASISCRASESVDNYGISFMNWFLQKPGQPPQLLIYAASNQGSGVPDRFSGSGSGTDFTLKISRVEAEDVGVYFCQQSLEVPWTFGGGTKVEIK
notes: also called 19D4-25-1C2与YTE突变、N297突变的Fc融合后得到的抗原结合蛋白
For B4, in assay [3], the IC50 amounted to 0.492 µg/mL.

B5: 1C2-3C11-Agly-YTE (antibody, V domains shown)
VH: EVQLQESGPGLVKPSETLSLTCTVSGFSLTSYAISWIRQPPGKGLEWIGVIWTGGGTNYNSALKSRVTISKDTSKNQVSLKLSSVTAADTAVYYCAREHYGTSPFVYWGQGTLVTVSS
VL: DIVLTQTPLSLSVTPGQPASISCRASESVDNYGISFMNWFLQKPGQPPQLLIYAASNQGSGVPDRFSGSGSGTDFTLKISRVEAEDVGVYFCQQSLEVPWTFGGGTKVEIK
notes: also called 19D4-25-1C2-3C11与YTE突变、N297突变的Fc融合后得到的抗原结合蛋白
Consider B5, for which the IC50 in assay [3] stood at 0.369 µg/mL.

B6: 3C11-Agly-YTE (antibody, V domains shown)
VH: EVQLQESGPGLVKPSETLSLTCTVSGFSLTSYAISWIRQPPGKGLEWIGVIWTGGGTNYNSALKSRVTISKDTSKNQVSLKLSSVTAADTAVYYCAREHYGTSPFVYWGQGTLVTVSS
VL: DIVLTQTPLSLSVTPGQPASISCRASESVDNYGISFMNWFLQKPGQPPQLLIYAASNQGSGVPDRFSGSGSGTDFTLKISRVEAEDVGVYFCQQSKEVPWTFGGGTKVEIK
notes: also called 19D4-25-3C11与YTE突变、N297突变的Fc融合后得到的抗原结合蛋白
Regarding B6, the IC50 in assay [3] was determined as 0.543 µg/mL.

B7: 1C2-3C11-W52F-Agly-YTE (antibody, V domains shown)
VH: EVQLQESGPGLVKPSETLSLTCTVSGFSLTSYAISWIRQPPGKGLEWIGVIFTGGGTNYNSALKSRVTISKDTSKNQVSLKLSSVTAADTAVYYCAREHYGTSPFVYWGQGTLVTVSS
VL: DIVLTQTPLSLSVTPGQPASISCRASESVDNYGISFMNWFLQKPGQPPQLLIYAASNQGSGVPDRFSGSGSGTDFTLKISRVEAEDVGVYFCQQSLEVPWTFGGGTKVEIK
notes: 19D4-25-1C2-3C11 with W52F and an Fc with YTE (M252Y, S254T, T256E) and N297A; The label itself is not defined in the text
Molecule B7 displayed an IC50 in assay [3] of 0.495 µg/mL.
